# Results: the supplement of paper PMC9732359
# ± gives the uncertainty stated by the source.
# Experiment: protein stability index of a GFP-peptide fusion (yeast GPS) (PSI 1-4); higher = more stable; sorted into four equal gates, so the index is relative within each strain
# Method in brief: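 The protein stability index of a peptide was calculated by multiplying its read frequency in each gate by that gate's number and adding the products. The peptides were tiled 17-residue stretches of yeast proteins, fused downstream of GFP on a Cherry-expressing plasmid and carried in yeast as a pooled library. Mid-log cultures in leucine-free medium were sorted into four equal gates by GFP/Cherry ratio, and each gate's plasmids were PCR-amplified and Illumina-sequenced.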
Sequence,protein stability index (doa10∆),protein stability index (pdr5∆),protein stability index (san1∆),protein stability index (ubr1∆)
EMSNKVLKVDKRFMNTS [BRR2],2.9 ± 0.04,2.96 ± 0.05,2.99 ± 0.038,2.93 ± 0.039
VPSTTNVNMTVNTMGTG [MED6],3.23 ± 0.3,3.37 ± 0.11,2.91 ± 0.17,2.61 ± 0.13
MLPPKSVKFTHIAHTLP [SSN2],1.57 ± 0.073,2 ± 0.05,2.05 ± 0.098,1.82 ± 0.034
ISFLEPINLKFLQGESP [YMR129W/POM152],2.6 ± 0.073,2.94 ± 0.11,–,2.67 ± 0.15
LLHSKPSLLLQKDQDGR [NAS6],3.22 ± 0.22,3.33 ± 0.13,–,–
IPFQTLYRSIESGEFDF [YJL039C/NUP192],1.95 ± 0.061,2.27 ± 0.062,2.11 ± 0.1,1.99 ± 0.032
VPNSIGNIFSNIGTPSF [SNF5],2.8 ± 0.11,2.6 ± 0.1,1.33 ± 0.15,2.79 ± 0.061
VKDELMFSPLVDSGSND [RPO21],3.11 ± 0.065,3.17 ± 0.053,3.22 ± 0.047,3.21 ± 0.048
LVLGEVSKKELYAIKKV [BRR2],1.68 ± 0.073,2.37 ± 0.096,3.13 ± 0.079,1.83 ± 0.08
YSPSNEISISFDVNNID [YDL116W/NUP84],2.4 ± 0.095,2.62 ± 0.071,2.31 ± 0.12,2.58 ± 0.067
HKYVLTLQLYMVHREFL [RGR1],1.38 ± 0.039,1.47 ± 0.037,1.86 ± 0.055,2.1 ± 0.034
ESQEKYMEPFDLDLNEQ [NSL1],3.29 ± 0.068,3.21 ± 0.057,3.35 ± 0.041,3.3 ± 0.045
TLFVRDQDSAVVSSNIK [QCR2],2.67 ± 0.23,2.52 ± 0.2,–,2.67 ± 0.17
RAKSSSHLFNEYSYVDS [RPN4],2.62 ± 0.16,3.23 ± 0.24,3.25 ± 0.19,2.63 ± 0.12
LIIIAANTPVLRKSELE [RPL30],2.2 ± 0.11,2.68 ± 0.14,2.31 ± 0.094,2.77 ± 0.13
LFVFTEGWPKFQDTLYK [QCR10],3.21 ± 0.19,2.91 ± 0.22,3.08 ± 0.12,–
DGIHYILNHIGQLTGIY [PRP8],1.67 ± 0.065,1.55 ± 0.073,1.14 ± 0.12,1.67 ± 0.078
DVKTAEEASQLIEYMEN [NUT1],2.91 ± 0.086,3.04 ± 0.099,3.05 ± 0.08,3.1 ± 0.064
IAKATKEFKGIKVTVQL [RPL12A],–,–,–,3.35 ± 0.18
GEGPFTVKFKHMDYDGN [YMR129W/POM152],2.79 ± 0.11,2.86 ± 0.068,2.78 ± 0.11,2.78 ± 0.059
VMTISSLEQRTLNPDLF [RPC82],–,3.1 ± 0.28,–,–
IFLHSLPVKEFQIIDTL [RPS2],2.49 ± 0.12,2.54 ± 0.089,2.44 ± 0.073,2.49 ± 0.061
AADILCELQVETYGSME [RPN5],3.15 ± 0.1,3.34 ± 0.075,3.27 ± 0.1,3.18 ± 0.23
KNVGNKSPEQCILRFLQ [SWI3],2.15 ± 0.062,2.67 ± 0.051,2.31 ± 0.083,1.84 ± 0.033
GSLACDTADEAKTLIPS [RPB4],3.06 ± 0.1,3.42 ± 0.086,3.33 ± 0.051,3.17 ± 0.071
EKGENPSCVYNLIGVIT [UBP6],2.64 ± 0.072,2.79 ± 0.093,3.07 ± 0.081,3.06 ± 0.1
VESQFSAGRLYACISSR [RPS8A],2.08 ± 0.11,2.65 ± 0.097,1.99 ± 0.14,2.55 ± 0.14
NVPSTKFNAAPEENATE [SNF12],3.21 ± 0.067,3.35 ± 0.07,3.17 ± 0.058,3.12 ± 0.055
